{
  "source": "patent US20140256789",
  "key": {"[1]": {"test_system": "p53 (wild-type, transfected)", "assay": "cell_activity", "details": "luciferase reporter in H1299 with wtp53, fold above pGL3-basic"}, "[2]": {"biological_target": "p53 (wild-type, endogenous) (Homo sapiens) (UniProt P04637)", "sequence (P04637 whole entry)": "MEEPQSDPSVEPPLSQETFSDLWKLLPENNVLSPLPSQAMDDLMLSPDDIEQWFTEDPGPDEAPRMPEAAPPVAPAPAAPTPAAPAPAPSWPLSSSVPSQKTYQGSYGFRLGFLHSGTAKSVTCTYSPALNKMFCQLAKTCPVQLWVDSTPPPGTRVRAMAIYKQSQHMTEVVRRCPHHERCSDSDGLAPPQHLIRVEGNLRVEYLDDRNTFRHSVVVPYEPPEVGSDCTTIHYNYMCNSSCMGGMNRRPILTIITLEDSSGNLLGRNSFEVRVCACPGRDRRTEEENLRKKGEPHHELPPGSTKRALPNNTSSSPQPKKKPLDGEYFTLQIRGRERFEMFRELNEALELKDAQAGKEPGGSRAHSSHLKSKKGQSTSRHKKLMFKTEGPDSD", "assay": "cell_activity", "details": "fold decrease in luciferase on p53 siRNA knockdown in HCT116"}},
  "data": [
    {"substance": "EST-Prom-luc (about 2 kb miR-34a promoter region with p53BS)", "values": [
      {"measurement": "activity", "setting": "[1]", "result": 20, "unit": "fold"},
      {"measurement": "activity", "setting": "[2]", "result": "> 3", "unit": "fold"}
    ]}
  ]
}
